Measurements reported in the DeepSol protein solubility set.

Experiment: soluble on expression in E. coli; label from the status in PepcDB or PDB records

Sequence | soluble on expression in E. coli
MGSDKIHHHHHHMRNMNIEEIRNSFLSGRPAVLIDEERENEADLVFPAEIATPKVVNFMLSAKGLLCLALDMEEGIKRGFFKLPNNGGETNFLIPVDYKDVFTGITAEERALTARKVAEGLGIENFRYPGHLPLLGGLGLNKRKGHTEASLELVEMAGFKRYALIIEILDDKGYSHNLDYAFHFAKEHDLPLIRIREIWKEFVRRKQLIHVYSKAKLPTKYGDFEIYSFKNDLDFKDHVALVKKPFKGTPLVRVHSKCLTGDTLGSLKCDCGSQLENALRTISQEGGVLIYLDQEGRGIGLREKIRAYEFQDRGLDTVEANKALGFAPDERTYEVAFQILRALGIEKIKLLTNNPSKVKALRELGIEIEDVIPLPGEINRYNFFYLKTKVEKLGHKIPGVEV | not soluble
MGSDKIHHHHHHMPVNIKQLAQEFDKKEIGITQGHRLCPGCGAPITVKFVMMIARHLGYEPVVGLATGCLEVSTSIYPYTAWSVPYIHNAFENVAATMSGVETAYKALKNKGKIPEDKKYAFIAFGGDGGTYDIGLQSLSGMLERGHKVLYVLYDNEGYMNTGNQRSGSTPPGSDTTTAPVGKKLPGKVQLKKNIVEIVAAHENVYAATASLSEPMDFFAKVEKALNFDGPSFLAVFSPCVRFWRVNDDKTVEISKLAVETKYWPLYEVERGVYRVTRKPRQFKPVEEFLKAQGRFRKLLSRPDAKEIVDELQEYVDRRWERLLTLEEVTKDKPIR | not soluble
MSEKRLPLKPVLRIDFPPGERLGHGKVELMQLIAETGSISAAGRAMDMSYRRAWLLVDALNHMFRQPVICSQRGGKQGGGAALTVFGAELLERYRGMEERMNEALREDIDWLEANRNPQDALNRDREPPTL | soluble
SKIFDFVKPGVITGDDVQKVFQVAKENNFALPAVNCVGTDSINAVLETAAKVKAPVIVQFSNGGASFIAGKGVKSDVPQGAAILGAISGAHHVHQMAEHYGVPVILHTDHCAKKLLPWIDGLLDAGEKHFAATGKPLFSSHMIDLSEESLQENIEICSKYLERMSKIGMTLEIELGCTGGEEDGVDNSHMDASALYTQPEDVDYAYTELSKISPRFTIAASFGNVHGVYKAGNVVLTPTILRDSQEYVSKKHNLPHNSLNFVFHGGSGSTAQEIKDSVSYGVVKMNIDTDTQWATWEGVLNYYKANEAYLQGQLGNPKGEDQPNKKYYDPRVWLRAGQTSMIARLEKAFQELNAIDVL | soluble
MIRGWLAEGERMKETSYYSYVVGELPKGCQYCVRGEKLVLFVTGVCPRNCFYCPLSPWRRKDVAYANERPIRKIEDIIEEAKIQEARGAGVTGGDPLARLNRTVEYIRTLKEEFGKKFHIHLYTTGILADKRALSMLYDAGLDEIRFHPDLFEPSSKFLNREIENLKNAFDFDWDVGGEVPAVPGFGDRIKWFAEILDKFGGKFLNINELEYSETNLSNILNRGFKLAGENSFAIKGSLELGLEILEWGEKNTSLYYHLCTAKLKDAVQLRNRLRRMAKNVAKPYMEITEDGTLRFGIAEYEDLEELYKFLVEEAEVPKEWLYINWEKKRIEMPVEVAEELAEAIEGDVKFYIVEEYPTWDRIEVERIPLN | not soluble
MKRRESSPLISTILGIRYGRCVMGNFSIVIPTYNERDNIVKLVEEINRIVPYNSRILIVDDNSPDGTALILQELNIHNLTVLIRHNERGLGSALRYGISKAIELESDFIVTMDADFSHNPKYLPEMMKIALNENCDLVIGSRYVIGGGIENWSLSRRIISKGANYLFKLVSHSPIMDNTSNYRIYSRRAALLALECDTTNGYEFQICSIFKIIRNNLKIKEYPIIFVDRKTGKSKLNLKEILNWFLYIIRLSLSFLEHHHHHH | not soluble
MLNNGTFPLVFQFIHRRRKLLYYTKYHIFQQQLADGALEVEYCEASLYSMKEIKEINRELKRDYKRFQNRILELERNNEEYLVDDIVEFKKKKSHRSYLLMQYIETQISYKKKMGKDGIAAAYHSTYISLKKYIGMKSARKSDIRMEEINFSFVVGYEDYLNAQGLARNTINYYLRNFRTIYNSSIRDGFKPKSENPFTYIQTKPCKTIKRAINKDDMKKLSSLILPVHSGMDIARDMYLFSFYAQGMAFVDIVFLKKKNIRDGILSYRRHKSQQLIHIVITPQMQGLIDKYANDSEYVFPIIDTSLSTSIYDQYRLALGRVNRYLKKITFRLNINVRLTTYTARHTWATLARESGAPISIISAGLGHTSEEMTRVYLKEFDQETLARVNRIVTNLL | not soluble
ADMGEKFDATFKAQVKAAKADMVMLSPKDAYKLLQENPDITLIDVRDPDELKAMGKPDVKNYKHMSRGKLEPLLAKSGLDPEKPVVVFCKTAARAALAGKTLREYGFKTIYNSEGGMDKWLEEGLPSLDRSHHHHHH | soluble
YTVEPVQDGERSVTLRRAGGTPLVAAMYHLPAAGSPDFVGLDLAATILADTPSGRLYHALVPTKLASGVFGFTMDQLDPGLAMFGAQLQPGMDQDKALQTLTATLESLSSKPFSQEELERARSKWLTAWQQTYADPEKVGVALSEAIASGDWRLFFLQRDRVRDAKLDDVQRAAVAYLVRSNRTEGRYIPTEKPQRAPLAQRADLAAV | soluble
MGSDKIHHHHHHMVLVVAGFDPSGGAGIIQDVKVLSALGVKTHAVISALTVQNENRVFSVNFRDWEEMRKEIEVLTPPRVIKVGLSAPETVKRLREMFPDSAIVWNVVLESSSGFGFQDPEEVKKFVEYADYVILNSEEAKKLGEYNNFIVTGGHEKGNTVKVKYRDFVFEIPRVPGEFHGTGCAFSSAVSGFLAMSYPVEEAIRSAMELLKKILERSSGVVETEKLLRDWYRYDTLNTLDEILPEFLEIGHLTVPEVGQNVSYALPWAKNEFEVGKFPGRIRLKEGKAVAVSCASFKDRSHTARMAVTMMRYHPHMRCVVNVRYEREYVERAKKRGLKVFHYDRSKEPKEVQEKEGQSMVWMIEQAIAELKSPPDVIYDEGWWGKEAMIRVFGRNPKEVLEKIKLMVRE | not soluble
MKIINLQFPNKYSAKKKEFVLAMGYFDGLHLGHRAVIQQAKRIADKQHLKLALLTYSQSPAGFYVNDPVLKVPILPFRQKMQMLEKLGVDTIFLIDYNLTFGSQSPEDYVDNYLAKLGASVVVAGFDHTYGSLKDKADMKHLPRYANGRFEVYTVRECSDYFGKISSTRIRRLLSEGDLQAVNELLGYQFQTVGFVVHGNQIGRRIGFPTANQALEEKQLLPKSGVYAVRTKIVTGPLAGRSFNGMASIGRNETFGSDNPITIEINLFDFSADVYDEEIIVYWISFLREQVKYANAEALIDQLKQDRIDSLDLLKEIPKSKNYS | not soluble
MSLTSLVSAVGSHHVTTDPDVLAGRSVDHTGRYRGRASALVRPGSAEEVAEVLRVCRDAGAYVTVQGGRTSLVAGTVPEHDDVLLSTERLCVVSDVDTVERRIEIGAGVTLAAVQHAASTAGLVFGVDLSARDTATVGGMASTNAGGLRTVRYGNMGEQVVGLDVALPDGTVLRRHSRVRRDNTGYDLPALFVGAEGTLGVITALDLRLHPTPSHRVTAVCGFAELAALVDAGRMFRDVEGIAALELIDGRAAALTREHLGVRPPVEADWLLLVELAADHDQTDRLADLLGGARMCGEPAVGVDAAAQQRLWRTRESLAEVLGVYGPPLKFDVSLPLSAISGFARDAVALVHRHVPDSPEALPLLFGHIGEGNLHLNVLRCPPDREPALYAKMMGLIAECGGNVSSEHGVGSRKRAYLGMSRQANDVAAMRRVKAALDPTGYLNAAVLFDEGHHHHHH | not soluble
MKVYVGNLGTGAGKGELERAFSYYGPLRTVWIARNPPGFAFVEFEDPRDAEDAVRGLDGKVICGSRVRVELSTGMPRRSRFDRPPARRKLLEVLFNGPLEH | soluble
MNSALDFAFPATFPVKSSSVGGHRIASPGFSSRLRLCSLPPSSSIKAESCLKRDVHRQRSSLESMFCYDKPIPEEIIEEPVGLSMSEREIGDNQRCTCCEAKGALLCSTCSGTGLYVDSIMESQGIIVKVRCLGCGGSGNIMCKLCGGRGHVGH | not soluble
MAVAYEGQLTGHRGWVTSLACPQTPETATKVVSTSRDKTLLSWGPNPDRHSSECSYGLPDRRLEGHSAFVSDVALSNNGNFAVSASWDHSLRLWNLQNGQCQYKFLGHTKDVLSVAFSPDNRQIVSGGRDNALRVWNVKGECMHTLSRGAHTDWVSCVRFSPSLDAPVIVSGGWDNLVKVWDLATGRLVTDLKGHTNYVTSVTVSPDGSLCASSDKDGVARLWDLTKGEALSEMAAGAPINQICFSPNRYWMCAATEKGIRIFDLENKDIIVELAPEHQGSKKIVPECVSIAWSADGSTLYSGYTDNVIRVWGVSENA | not soluble
